In patent US20060105407:

Key:
[1] = biological target: T1, malic enzyme-monomer kemptide (UniProt P26616)
T1 sequence: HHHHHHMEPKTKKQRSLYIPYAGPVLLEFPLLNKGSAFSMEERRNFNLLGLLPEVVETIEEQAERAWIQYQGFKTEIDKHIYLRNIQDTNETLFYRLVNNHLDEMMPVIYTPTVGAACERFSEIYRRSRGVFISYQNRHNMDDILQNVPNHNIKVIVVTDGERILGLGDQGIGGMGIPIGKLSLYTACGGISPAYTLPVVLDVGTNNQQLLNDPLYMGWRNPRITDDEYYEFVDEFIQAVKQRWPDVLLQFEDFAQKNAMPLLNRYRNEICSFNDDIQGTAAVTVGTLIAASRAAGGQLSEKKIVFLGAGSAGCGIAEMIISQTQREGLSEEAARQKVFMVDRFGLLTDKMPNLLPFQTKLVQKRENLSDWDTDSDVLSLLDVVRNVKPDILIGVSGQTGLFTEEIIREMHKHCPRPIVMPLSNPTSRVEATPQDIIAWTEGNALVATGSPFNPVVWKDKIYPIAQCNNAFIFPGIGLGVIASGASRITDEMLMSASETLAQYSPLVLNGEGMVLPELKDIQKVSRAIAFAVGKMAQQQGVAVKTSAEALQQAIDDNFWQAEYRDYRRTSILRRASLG

[2] = biological target: leptin-dimer kemptide (UniProt P41159)
Chain of leptin-dimer kemptide (P41159 other isoform, or with tags, fused parts or gaps): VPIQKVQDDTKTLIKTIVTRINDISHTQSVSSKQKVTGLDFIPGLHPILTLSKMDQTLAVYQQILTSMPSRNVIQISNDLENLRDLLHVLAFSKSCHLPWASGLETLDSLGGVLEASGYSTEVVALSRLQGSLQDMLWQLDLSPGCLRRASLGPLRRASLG

[3] = biological target: leptin-monomer Ab1 (UniProt P41159)
Chain of leptin-monomer Ab1 (P41159 other isoform, or with tags, fused parts or gaps): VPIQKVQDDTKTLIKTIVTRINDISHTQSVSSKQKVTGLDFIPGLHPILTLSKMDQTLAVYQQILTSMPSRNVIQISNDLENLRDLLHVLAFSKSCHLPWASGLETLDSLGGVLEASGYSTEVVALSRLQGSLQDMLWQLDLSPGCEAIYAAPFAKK

[4] = biological target: leptin-dimer Ab1 (UniProt P41159)
Chain of leptin-dimer Ab1 (P41159 other isoform, or with tags, fused parts or gaps): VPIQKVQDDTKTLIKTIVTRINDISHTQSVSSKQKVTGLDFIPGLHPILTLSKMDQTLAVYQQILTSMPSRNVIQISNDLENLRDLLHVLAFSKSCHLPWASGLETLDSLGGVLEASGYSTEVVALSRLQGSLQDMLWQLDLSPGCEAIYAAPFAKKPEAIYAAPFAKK

Row | Substance | fluorometric analysis of phosphorylation on protein chip (Cy3-labeled anti-phosphorylation serine antibody) [1] | fluorometric analysis of phosphorylation on protein chip, 10-fold diluted spots [2] | fluorometric analysis of phosphorylation on protein chip (Cy5-labeled anti-phosphorylation tyrosine antibody) [3] | fluorometric analysis of phosphorylation on protein chip (Cy5-labeled anti-phosphorylation tyrosine antibody) [4]
1 | protein kinase A | the protein kinase A showed a specific interaction with the kemptide of a form fused with the leptin or malic enzyme | In a diluted state as shown by 2 and 4, the dimer showed a higher reactivity than the monomer |  | 
2 | Ab1 kinase |  |  | the Ab1 kinase showed a specific interaction with the Ab1 monomer and dimer fused with leptin | the Ab1 kinase showed a specific interaction with the Ab1 monomer and dimer fused with leptin
